Test results reported in article PMC3402474 (PLoS ONE, 2012).
Residue numbers refer to the chain shown, from its start.

B1: ammodytoxin A (enzyme)
chain: SLLEFGMMILGETGKNPLTSYSFYGCYCGVGGKGTPKDATDRCCFVHDCCYGNLPDCSPKTDRYKYHRENGAIVCGKGTSCENRICECDRAAAICFRKNLKTYNYIYRNYPDFLCKKESEKC
B2: ammodytoxin C (enzyme)
chain: B1 chain with F113I, K117E
notes: also called AtxC
B3: ammodytoxin B (enzyme)
chain: B1 chain with Y105H, R108M, N109Y
notes: also called AtxB
B4: Bmh1 (natural protein, S. cerevisiae, UniProt P29311 1-267, looked up)
chain: MSTSREDSVYLAKLAEQAERYEEMVENMKTVASSGQELSVEERNLLSVAYKNVIGARRASWRIVSSIEQKEESKEKSEHQVELICSYRSKIETELTKISDDILSVLDSHLIPSATTGESKVFYYKMKGDYHRYLAEFSSGDAREKATNASLEAYKTASEIATTELPPTHPIRLGLALNFSVFYYEIQNSPDKACHLAKQAFDDAIAELDTLSEESYKDSTLIMQLLRDNLTLWTSDMSESGQAEDQQQQQQHQQQQPPAAAEGEAPK
notes: also called yeast 14-3-3 protein Bmh1; recombinant Bmh1
B5: ammodytin L (natural protein)
chain: SVIEFGKMIQEETDKNPLTSYSFYGCHCGLGNKGKPKDATDRCCFVHSCCYAKLPDCSPKTNRYEYHRENGAIVCGSSTPCKKQICECDRAAAICFRENLKTYNKKYKVYLRFKCKGVSEKC
B6: Bmh2 (natural protein, S. cerevisiae, UniProt P34730 1-273, looked up)
chain: MSQTREDSVYLAKLAEQAERYEEMVENMKAVASSGQELSVEERNLLSVAYKNVIGARRASWRIVSSIEQKEESKEKSEHQVELIRSYRSKIETELTKISDDILSVLDSHLIPSATTGESKVFYYKMKGDYHRYLAEFSSGDAREKATNSSLEAYKTASEIATTELPPTHPIRLGLALNFSVFYYEIQNSPDKACHLAKQAFDDAIAELDTLSEESYKDSTLIMQLLRDNLTLWTSDISESGQEDQQQQQQQQQQQQQQQQQAPAEQTQGEPTK
notes: also called yeast 14-3-3 protein Bmh2; recombinant Bmh2

How the values were obtained:
Bmh2 [1] = molecular target: B6; test: SPR; conditions: both partners purified
Bmh1 [2] = molecular target: B4; test: SPR; conditions: both partners purified
Bmh2 [3] = molecular target: B6; test: SPR; BiacoreX, 25°C; recombinant Bmh1 or Bmh2 in 50 mM Tris (pH 7.5), 150 mM NaCl, 0.1 mM CaCl2 immobilized to CM5 chips; 2 µM sPLA2 injected; dissociation monitored 180 s; responses corrected for surface density and molecular weights; conditions: both partners purified
Bmh1 [4] = molecular target: B4; test: as above; conditions: both partners purified
dynamic light scattering = molecular target: the molecule itself; test: dynamic light scattering

Binder	binding result (Bmh2 [1])	binding result (Bmh1 [2])	binding result (Bmh2 [3])	binding result (Bmh1 [4])	stoichiometry N (dynamic light scattering)
B1	binds	binds	–	–	–
B2	–	–	binds	binds	–
B3	–	–	binds	binds	–
B4	–	–	–	–	2
B5	binds	binds	–	–	–
B6	–	–	–	–	2
